Laboratory results reported in patent US6207419A, “Thrombin inhibitory agents and methods of using same” (The University of North Carolina at Chapel Hill, priority 1999, dated 2001).

Legend:
thrombin [1] = assay: Thrombin inhibition in the absence of glycosaminoglycan; format: biochemical, human
Experimental: All assays were performed at room temperature in 96-well microtiter plates previously coated with 2 mg/mL BSA.
(§1) Residual thrombin activity was measured with 150 μM GlyProArg-NA and 1 mg/mL pB in the absence of glycosaminoglycan, 2 mg/mL pB in the presence of heparin and 4 mg/mL in the presence of dermatan sulfate. Residual factor Xa activity was measured with 500 μM Spectrozyme FXa and 2mg/mL pB in the presence or absence of glycosaminoglycan. Residual chymotrypsin activity was measured with 150 μM AlaAlaProPhe-NA and residual trypsin activity was measured with 150 μM GlyProArg-NA.
(§2) Assays were performed at least in triplicate on two or more recombinant protein preparations.

[2] = target: T1, plasma purified α-thrombin (Homo sapiens, UniProt P00734); assay: Thrombin inhibition in the presence of glycosaminoglycans (heparin or dermatan sulfate); format: biochemical; details: for maximal rate of thrombin inhibition in the presence of heparin: heparin at optimal concentration; for maximal rate of thrombin inhibition in the presence of dermatan sulfate: dermatan sulfate at optimal concentration
T1 construct: Human α-thrombin, HCII, and ATIII were purified in our laboratory from plasma; from tissue; host or cells: human plasma (purified in the authors' laboratory)
Experimental: (§3) Protease inhibition rates were determined as described previously (Rogers, S. J., Pratt, C. W., Whinna, H. C., and Church, F. C. (1992) J. Biol. Chem. 267(6), 3613-3617; Whinna, H. C., Choi, H. U., Rosenberg, L. C., and Church, F. C. (1993) J. Biol. Chem. 268, 3920-3924; Ciaccia, A. V., Cunningham, E. L., and Church, F. C. (1995) Protein Express. Purific. 6, 806-812; Ciaccia, A. V., Willemze, A. J., and Church, F. C. (1997) J. Biol. Chem. 272(2), 888-893). All assays were performed at room temperature in 96-well microtiter plates previously coated with 2 mg/mL BSA.
In the presence of glycosaminoglycans, 5 nM rHCII (wt, CHis6, CHis5 Pro, L444R, or L444R-CHis6) was incubated with 0.5 nM thrombin and 0-1 mg/mL heparin or 0-4 mg/mL dermatan sulfate or 10 nM rATIII (wt or CHis6) was incubated with 1 nM thrombin or factor Xa and 0-1 mg/mL heparin in the presence of 2 mg/mL BSA in HNPN, pH 7.4.
as §1, with “GlyProArg-NA. Substrate cleavage was measured by color development at […] on a Vmax Kinetic Microplate Reader (Molecular Devices).” for “GlyProArg-NA.”
(§4) Assays were performed at least in triplicate on two or more recombinant protein preparations. All inhibition studies were measured under pseudo-first order conditions where inhibitor [I] is at least ten-fold higher than enzyme (protease) [E], and second-order rate constants were calculated as described previously (Ciaccia, A. V., Cunningham, E. L., and Church, F. C. (1995) Protein Express. Purific. 6, 806-812; Ciaccia, A. V., Willemze, A. J., and Church, F. C. (1997) J. Biol. Chem. 272(2), 888-893).

[3] = test system: plasma-purified α-thrombin; assay: Thrombin inhibition with heparin before and after carboxypeptidase A digest; format: biochemical, human; details: 2 hr, room temperature, FIG. 3
Experimental: Forty ng of CPA was combined with approximately 1 μg of recombinant protein and incubated at room temperature. Following a 2-hr incubation at room temperature, 2 mM EDTA was added to quench CPA activity. Controls were run in which EDTA was added to the reaction prior to the addition of CPA. CPA digested proteins were then assayed according to previously mentioned procedures.

α-thrombin = target: T2, α-thrombin (Homo sapiens, UniProt P00734); assay: Effect of hirugen on thrombin inhibition in the absence of glycosaminoglycan; format: biochemical; details: for rate constant of inhibition (k2) in the absence of peptide: no hirugen, no control peptide, FIG. 5
T2 construct: Human α-thrombin, HCII, and ATIII were purified in our laboratory from plasma; from tissue; host or cells: human plasma (purified in the authors' laboratory)
Experimental: as §1, §2

chymotrypsin = assay: Chymotrypsin inhibition in the absence of glycosaminoglycan; format: biochemical; details: pH 7.4, mean ± S.D.
Experimental: as §3
In the absence of glycosaminoglycan, 50-100 nM rHCII (wt, CHis6, CHis5 Pro, L444R, or L444R-CHis6) or rATIII (wt or CHis6) was incubated with 1 nM thrombin, 0.5 nM Factor Xa, 2 nM chymotrypsin, or 5 nM trypsin, in the presence of 1 mg/mL Polybrene (pB) (for thrombin and Factor Xa) and 2 mg/mL BSA in HNPN, pH 7.4.
as §1, with “GlyProArg-NA. Substrate cleavage was measured by color development at […] on a Vmax Kinetic Microplate Reader (Molecular Devices).” for “GlyProArg-NA.”
as §4

thrombin [4] = assay: Plasma-based thrombin inhibition assay; format: biochemical, human; details: 10 nM serpin
Experimental: The assay to evaluate rHCII (wt and rHCII-CHis6) in plasma was designed based on previously published methods (Tollefsen, D. M., and Pestka, C. A. (1985) Blood 66(4), 769-774; Griffith, M. J., Carraway, T., White, G. C., and Dombrose, F. A. (1983) Blood 61(1), 111-118). All assays were performed at room temperature in 96-well microtiter plates previously coated with 2 mg/mL BSA. This assay was performed using normal hemostasis reference plasma (REF), human antithrombin III-deficient plasma (DEF), or a 50:50 mixture of these plasmas (REF/DEF). Within the assay, 10 nM rHCII or rHCII-CHis6 was incubated for 15 sec with I nM thrombin and 1 μg/mL heparin or 50 μg/mL dermatan sulfate, in the presence of a 1:100 dilution of plasma. Residual thrombin activity was measured with 300 μM GPA and 2 mg/mL pB. Substrate cleavage was measured by color development at […] on a Vmax Kinetic Microplate Reader. Second order rate constants were measured at least in triplicate on two recombinant protein preparations as described in Example 4.

[5] = Heparin-Sepharose affinity chromatography; format: binding; details: NaCl gradient, 20 mM Hepes pH 7.4
Experimental: 100 μL of each fraction was aliquoted onto a 96-well microtiter plate and ELISA was performed. The peak elution ionic strength was determined by plotting 405 nm color development and NaCl concentration against the fraction number. All samples were run at least in triplicate using two or more protein preparations. Recombinant ATIII samples were run similarly to the HCII samples, except the elution gradient was run from 50 mM to 2 M NaCl.

[6] = hirugen 20 μM, absence of glycosaminoglycan

Molecule | rate of thrombin inhibition in the absence of glycosaminoglycan (thrombin [1]) | heparin concentration at maximal rate of thrombin inhibition [2] | maximal rate of thrombin inhibition in the presence of heparin [2] | change of heparin-dependent thrombin inhibition after CPA digest, in words [3] | rate constant of inhibition (k2) in the absence of peptide (α-thrombin) | dermatan sulfate concentration at maximal rate of thrombin inhibition [2] | maximal rate of thrombin inhibition in the presence of dermatan sulfate [2] | Heparin-Sepharose [NaCl], peak elution concentration [5] | further results
rHCII-CHis5 Pro: Recombinant HCII mutant with a His5 Pro carboxyl-terminal tag; SEQ ID NO:7 (protein, His5 Pro C-terminal tag) MKHSLNALLIFLIITSAWGGSKGPLDQLEKGGETAQSADPQWEQLNNKNLSMPLLPADFHKENTVTNDWIPEGEEDDDYLDLEKIFSEDDDYIDIVDSLSVSPTDSDVSAGNILQLFHGKSRIQRLNILNAKFAFNLYRVLKDQVNTFDNIFIAPVGISTAMGMISLGLKGETHEQVHSILHFKDFVNASSKYEITTIHNLFRKLTHRLFRRNFGYTLRSVNDLYIQKQFPILLDFRTKVREYYFAEAQIADFSDPAFISKTNNHIMKLTKGLIKDALENIDPATQMMILNCIYFKGSWVNKFPVEMTHNHNFRLNEREVVKVSMMQTKGNFLAANDQELDCDILQLEYVGGISMLIVVPHKMSGMKTLEAQLTPRVVERWQKSMTNRTREVLLPKFKLEKNYNLVESLKLMGIRMLFDKNGNMAGISDQRIAIDLFKHQGTITVNEEGTQATTVTTVGFMPLSTQVRFTVDRPFLFLIYEHRTSCLLFMGRVANPSRSHHHHHP | 32000 M⁻¹ min⁻¹ | 10 µg/mL | 1.87±0.37×10^9 M^-1 min^-1 | does not change appreciably | – | – | – | – | rate of thrombin inhibition relative to wt-rHCII (thrombin [1]): ~ 2 fold
wt-rHCII: Human wild type recombinant heparin cofactor II expressed in the baculovirus expression system (protein, UniProt P05546 20-499, looked up) Heparin cofactor 2: GSKGPLDQLEKGGETAQSADPQWEQLNNKNLSMPLLPADFHKENTVTNDWIPEGEEDDDYLDLEKIFSEDDDYIDIVDSLSVSPTDSDVSAGNILQLFHGKSRIQRLNILNAKFAFNLYRVLKDQVNTFDNIFIAPVGISTAMGMISLGLKGETHEQVHSILHFKDFVNASSKYEITTIHNLFRKLTHRLFRRNFGYTLRSVNDLYIQKQFPILLDFKTKVREYYFAEAQIADFSDPAFISKTNNHIMKLTKGLIKDALENIDPATQMMILNCIYFKGSWVNKFPVEMTHNHNFRLNEREVVKVSMMQTKGNFLAANDQELDCDILQLEYVGGISMLIVVPHKMSGMKTLEAQLTPRVVERWQKSMTNRTREVLLPKFKLEKNYNLVESLKLMGIRMLFDKNGNMAGISDQRIAIDLFKHQGTITVNEEGTQATTVTTVGFMPLSTQVRFTVDRPFLFLIYEHRTSCLLFMGRVANPSRS | – | 50 to 100 µg/mL | 9.29±2.8×10^8 M^-1 min^-1 | do not drastically change | 253 M⁻¹ s⁻¹ | approximately 500 μg/mL | 1.52±0.31×10^9 M^-1 min^-1 | 350 mM | reduction of rate of thrombin inhibition by hirugen (α-thrombin; [6]): > 50%; k2 × 10^4 (M^-1 min^-1), thrombin (thrombin [1]; pH 7.4, mean ± S.D.): 1.30 ± .19 × 10^4 (M^-1 min^-1); average dermatan sulfate concentration at which the maximal rate was measured (in parentheses), thrombin ([2]; Thrombin + dermatan sulfate, unit not printed in table (text b157: μg/mL)): 500; average heparin concentration at which the maximal rate was measured (in parentheses), thrombin ([2]; Thrombin + heparin, unit not printed in table (text b156: μg/mL)): 50; Inhibition Rate k2 × 10^8 (M^-1 min^-1), Thrombin + dermatan sulfate ([2]; maximal rate of dermatan sulfate curve, mean ± S.D.): 15.2 ± 3.1 × 10^8 (M^-1 min^-1); Inhibition Rate k2 × 10^8 (M^-1 min^-1), Thrombin + heparin ([2]; maximal rate of heparin curve, mean ± S.D.): 9.29 ± 2.8 × 10^8 (M^-1 min^-1); k2 × 10^4 (M^-1 min^-1), chymotrypsin (chymotrypsin): 71.0 ± 12 × 10^4 (M^-1 min^-1); Inhibition Rate k2 × 10^8 (M^-1 min^-1), thrombin in plasma (thrombin [4]; Dermatan Sulfate (50 μg/mL), 50:50 Mixture (REF/DEF) plasma 1:100): 5.8 ± .24 × 10^8 (M^-1 min^-1); Inhibition Rate k2 × 10^8 (M^-1 min^-1), thrombin in plasma (thrombin [4]; Dermatan Sulfate (50 μg/mL), ATIII Deficient (DEF) plasma 1:100): 6.5 ± .50 × 10^8 (M^-1 min^-1); Inhibition Rate k2 × 10^8 (M^-1 min^-1), thrombin in plasma (thrombin [4]; Dermatan Sulfate (50 μg/mL), Normal Reference (REF) plasma 1:100): 5.7 ± .45 × 10^8 (M^-1 min^-1); Inhibition Rate k2 × 10^8 (M^-1 min^-1), thrombin in plasma (thrombin [4]; Heparin (1 μg/mL), 50:50 Mixture (REF/DEF) plasma 1:100): 1.9 ± .050 × 10^8 (M^-1 min^-1); Inhibition Rate k2 × 10^8 (M^-1 min^-1), thrombin in plasma (thrombin [4]; Heparin (1 μg/mL), ATIII Deficient (DEF) plasma 1:100): .26 ± .050 × 10^8 (M^-1 min^-1); Inhibition Rate k2 × 10^8 (M^-1 min^-1), thrombin in plasma (thrombin [4]; Heparin (1 μg/mL), Normal Reference (REF) plasma 1:100): 22 ± .17 × 10^8 (M^-1 min^-1)
rHCII-L444R-CHis6: HCII mutant that contains both L444R and a hexahistidine carboxyl tag (protein, UniProt P05546 20-499, looked up, variant L444R, C-terminal His6 tag) Heparin cofactor 2: GSKGPLDQLEKGGETAQSADPQWEQLNNKNLSMPLLPADFHKENTVTNDWIPEGEEDDDYLDLEKIFSEDDDYIDIVDSLSVSPTDSDVSAGNILQLFHGKSRIQRLNILNAKFAFNLYRVLKDQVNTFDNIFIAPVGISTAMGMISLGLKGETHEQVHSILHFKDFVNASSKYEITTIHNLFRKLTHRLFRRNFGYTLRSVNDLYIQKQFPILLDFKTKVREYYFAEAQIADFSDPAFISKTNNHIMKLTKGLIKDALENIDPATQMMILNCIYFKGSWVNKFPVEMTHNHNFRLNEREVVKVSMMQTKGNFLAANDQELDCDILQLEYVGGISMLIVVPHKMSGMKTLEAQLTPRVVERWQKSMTNRTREVLLPKFKLEKNYNLVESLKLMGIRMLFDKNGNMAGISDQRIAIDLFKHQGTITVNEEGTQATTVTTVGFMPRSTQVRFTVDRPFLFLIYEHRTSCLLFMGRVANPSRS | 1.59±0.26×10^6 M^-1 min^-1 | ~ 20 μg/mL | 2.47±0.35×10^8 M^-1 min^-1 | – | 35300 M⁻¹ s⁻¹ | ~ 200 μg/mL | 8.81±0.20×10^8 M^-1 min^-1 | 600 mM | effect of hirugen on thrombin inhibition, in words (α-thrombin; [6]): less of an effect; rate of thrombin inhibition relative to rHCII-CHis6 (thrombin [1]): ~ 100 fold; rate of thrombin inhibition compared in words with the untagged serpin (thrombin [1]; comparator rHCII-L444R or wt-rATIII as in sentence): not significantly different
